Laboratory results published in the supplement of paper PMC9876800.

Test system: peptide library, one residue held at a place counted from the S/T acceptor
Assay: relative phosphorylation of the sub-library (ratio to the mean residue at this position); higher = residue favoured
Outline: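 Spots on streptavidin membranes were phosphorimaged and quantified by densitometry to measure phosphorylation of biotinylated degenerate peptide sub-libraries by purified recombinant kinases, human or orthologue constructs. The reactions ran in 384-well plates for 90 min under kinase-specific conditions, with peptides at 50 μM and 50 μM ATP spiked with γ-32P-ATP. Relative sub-library phosphorylation is the ratio to the mean residue at that position.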

Chain of CDK8, construct: Full length*, human (P49336 whole entry, looked up): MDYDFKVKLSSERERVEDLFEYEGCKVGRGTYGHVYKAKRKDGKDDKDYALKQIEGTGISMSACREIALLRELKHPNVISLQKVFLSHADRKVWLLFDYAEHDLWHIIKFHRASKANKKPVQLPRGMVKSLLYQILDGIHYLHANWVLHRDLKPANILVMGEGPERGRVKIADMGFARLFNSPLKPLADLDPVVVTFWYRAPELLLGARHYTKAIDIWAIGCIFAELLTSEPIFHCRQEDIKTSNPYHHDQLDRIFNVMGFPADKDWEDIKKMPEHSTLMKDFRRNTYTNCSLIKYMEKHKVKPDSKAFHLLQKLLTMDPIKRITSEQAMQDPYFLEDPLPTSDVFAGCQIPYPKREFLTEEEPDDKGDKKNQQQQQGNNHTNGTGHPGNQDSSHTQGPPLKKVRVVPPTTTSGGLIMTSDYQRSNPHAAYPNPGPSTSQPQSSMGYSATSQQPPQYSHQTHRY
Chain of RPS6KB2, construct: Full length, human (Q9UBS0 whole entry, looked up): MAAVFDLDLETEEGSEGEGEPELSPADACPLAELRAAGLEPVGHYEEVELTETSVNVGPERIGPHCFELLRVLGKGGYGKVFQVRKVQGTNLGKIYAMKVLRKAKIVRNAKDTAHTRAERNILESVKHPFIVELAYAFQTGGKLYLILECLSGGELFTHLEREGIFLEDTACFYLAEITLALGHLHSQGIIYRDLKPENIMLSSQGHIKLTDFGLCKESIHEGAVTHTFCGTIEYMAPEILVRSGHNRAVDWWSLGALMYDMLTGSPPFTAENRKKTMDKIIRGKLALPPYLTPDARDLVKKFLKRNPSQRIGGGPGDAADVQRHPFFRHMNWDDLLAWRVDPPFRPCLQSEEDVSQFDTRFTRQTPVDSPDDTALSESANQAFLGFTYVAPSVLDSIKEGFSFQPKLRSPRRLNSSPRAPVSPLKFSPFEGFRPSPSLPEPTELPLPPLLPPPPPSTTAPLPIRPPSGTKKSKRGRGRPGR
Chain of STK32B, construct: Full length, human (Q9NY57 whole entry, looked up): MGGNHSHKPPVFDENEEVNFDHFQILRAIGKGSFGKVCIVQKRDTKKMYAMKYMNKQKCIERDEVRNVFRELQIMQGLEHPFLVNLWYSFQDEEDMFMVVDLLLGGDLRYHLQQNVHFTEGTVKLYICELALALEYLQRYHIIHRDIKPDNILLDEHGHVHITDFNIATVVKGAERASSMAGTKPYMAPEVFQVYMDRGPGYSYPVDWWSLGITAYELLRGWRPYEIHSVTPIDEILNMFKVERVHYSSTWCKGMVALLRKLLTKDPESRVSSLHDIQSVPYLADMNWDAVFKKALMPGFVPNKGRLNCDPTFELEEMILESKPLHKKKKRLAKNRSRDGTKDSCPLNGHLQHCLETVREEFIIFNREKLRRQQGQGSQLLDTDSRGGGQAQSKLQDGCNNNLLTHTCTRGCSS

PRKG1, construct: Full length, human (from UniProt Q13976)
relative phosphorylation
Conditions | at +1 | at +2 | at +3 | at +4 | at -1 | at -2 | at -3 | at -4 | at -5
A fixed | 0.819 | 1.43 | 0.964 | 0.841 | 0.831 | 0.24 | 0.611 | 1.1 | 1.11
D fixed | 0.195 | 0.45 | 0.572 | 0.5 | 0.21 | 0.0553 | 0.075 | 0.315 | 0.381
E fixed | 0.236 | 0.242 | 0.458 | 0.419 | 0.193 | 0.0546 | 0.0892 | 0.395 | 0.517
F fixed | 1.29 | 1.16 | 1.23 | 1.13 | 1.05 | 0.201 | 0.447 | 0.986 | 1.08
G fixed | 0.479 | 0.901 | 1.06 | 1.07 | 0.416 | 0.248 | 0.684 | 0.878 | 1.06
H fixed | 1.2 | 1.62 | 1.49 | 1.31 | 1.25 | 0.518 | 1.48 | 1.3 | 1.24
I fixed | 1.73 | 1.25 | 1.02 | 1.19 | 0.958 | 0.168 | 0.262 | 0.75 | 0.82
K fixed | 0.623 | 0.642 | 0.669 | 0.715 | 1.42 | 5.12 | 2.17 | 1.53 | 1.43
L fixed | 1.45 | 0.936 | 1.07 | 1.22 | 1.33 | 0.166 | 0.239 | 0.996 | 0.779
M fixed | 1.56 | 1.03 | 1.26 | 1.22 | 1.43 | 0.171 | 0.351 | 1.31 | 0.877
N fixed | 0.589 | 0.94 | 0.909 | 1.15 | 0.787 | 0.264 | 0.329 | 0.891 | 0.905
P fixed | 0.177 | 0.576 | 0.743 | 1.35 | 0.718 | 0.13 | 0.421 | 0.58 | 0.8
Q fixed | 0.967 | 1.16 | 0.964 | 1.02 | 0.868 | 0.402 | 0.674 | 0.851 | 0.848
R fixed | 0.982 | 0.6 | 0.861 | 0.754 | 1.95 | 8.27 | 7.6 | 2.14 | 1.81
V fixed | 2.26 | 1.53 | 1.03 | 0.847 | 1.16 | 0.544 | 0.273 | 0.77 | 0.914
W fixed | 1.12 | 1.35 | 1.33 | 1.24 | 0.797 | 0.22 | 0.482 | 1.06 | 1.25
Y fixed | 1.33 | 1.2 | 1.38 | 1.02 | 1.64 | 0.23 | 0.82 | 1.15 | 1.19
pThr fixed | 0.343 | 0.228 | 0.412 | 0.444 | 0.174 | 0.142 | 0.214 | 0.542 | 0.627
pTyr fixed | 0.365 | 0.324 | 0.493 | 0.5 | 0.324 | 0.098 | 0.248 | 0.487 | 0.659

STK32B, construct: Full length, human (from UniProt Q9NY57)
relative phosphorylation
Conditions | at +1 | at +2 | at +3 | at +4 | at -1 | at -2 | at -3 | at -4 | at -5
A fixed | 0.577 | 0.493 | 0.744 | 0.79 | 0.938 | 0.933 | 0.994 | 1.1 | 1.08
D fixed | 0.363 | 0.882 | 0.608 | 0.539 | 0.556 | 0.56 | 1.54 | 1.15 | 1.08
E fixed | 0.932 | 1.81 | 0.743 | 0.769 | 0.726 | 0.921 | 1.35 | 1.59 | 0.878
F fixed | 2.31 | 0.995 | 1.37 | 0.745 | 0.832 | 1.35 | 0.754 | 0.804 | 0.938
G fixed | 0.389 | 0.269 | 0.43 | 0.849 | 1.26 | 0.739 | 0.909 | 1.24 | 1.19
H fixed | 0.784 | 1.61 | 1.11 | 1.16 | 0.992 | 1.22 | 0.871 | 0.975 | 1.14
I fixed | 1.91 | 0.897 | 1.47 | 1.04 | 0.557 | 0.77 | 0.702 | 0.66 | 0.798
K fixed | 0.75 | 0.796 | 1.1 | 1.84 | 1.32 | 0.656 | 1.05 | 1.1 | 1.35
L fixed | 1.1 | 0.767 | 1.29 | 0.812 | 0.884 | 1.7 | 0.77 | 0.744 | 0.78
M fixed | 2.15 | 0.934 | 1.17 | 0.898 | 1.15 | 1.2 | 0.776 | 0.906 | 0.797
N fixed | 0.545 | 0.704 | 0.659 | 0.828 | 0.878 | 1.02 | 0.941 | 0.983 | 1.03
P fixed | 0.259 | 0.214 | 0.356 | 1.13 | 1.46 | 1.23 | 1.03 | 1.1 | 0.987
Q fixed | 1.01 | 0.86 | 0.826 | 0.864 | 1.03 | 0.88 | 0.753 | 0.88 | 0.88
R fixed | 0.939 | 1.01 | 1.05 | 1.87 | 2.02 | 1.02 | 2.17 | 1.32 | 1.39
V fixed | 1.26 | 0.765 | 1.4 | 0.742 | 0.593 | 0.797 | 0.821 | 0.764 | 0.736
W fixed | 0.713 | 1.39 | 1.41 | 1.14 | 0.634 | 0.755 | 0.65 | 0.784 | 0.844
Y fixed | 1 | 2.61 | 1.24 | 0.989 | 1.16 | 1.25 | 0.915 | 0.903 | 1.11
pThr fixed | 1.12 | 2.27 | 3.42 | 1.86 | 1.03 | 1.74 | 9.83 | 2.88 | 1.67
pTyr fixed | 2.4 | 63.9 | 6.44 | 10.7 | 1.72 | 7.31 | 2.44 | 1.38 | 1.77

RPS6KB2, construct: Full length, human (from UniProt Q9UBS0)
relative phosphorylation
Conditions | at +1 | at +2 | at +3 | at +4 | at -1 | at -2 | at -3 | at -4 | at -5
A fixed | 0.79 | 1.22 | 1.17 | 1 | 0.797 | 0.703 | 0.597 | 0.963 | 0.777
D fixed | 0.72 | 0.659 | 0.823 | 1.07 | 1.08 | 0.468 | 0.415 | 0.699 | 0.634
E fixed | 1.07 | 0.594 | 0.891 | 0.933 | 0.764 | 0.467 | 0.386 | 0.709 | 0.569
F fixed | 1.32 | 0.706 | 0.912 | 0.863 | 0.822 | 0.626 | 0.459 | 0.705 | 0.611
G fixed | 0.854 | 1.27 | 1.14 | 1.2 | 0.76 | 0.701 | 0.554 | 1.07 | 0.961
H fixed | 0.971 | 1.58 | 1.18 | 1.17 | 1.01 | 1.11 | 0.903 | 1.05 | 1
I fixed | 1.22 | 0.745 | 0.82 | 0.733 | 0.734 | 0.552 | 0.421 | 0.737 | 0.571
K fixed | 0.989 | 1.09 | 1.08 | 1.19 | 1.63 | 2.59 | 2.04 | 1.97 | 2.19
L fixed | 0.979 | 0.781 | 0.897 | 0.774 | 0.835 | 0.866 | 0.475 | 0.647 | 0.584
M fixed | 1.11 | 0.961 | 0.869 | 0.849 | 0.903 | 0.702 | 0.453 | 0.77 | 0.566
N fixed | 1.06 | 1.51 | 1.06 | 1.03 | 1.59 | 0.803 | 0.625 | 0.938 | 0.784
P fixed | 0.614 | 0.914 | 1.05 | 1.25 | 0.931 | 0.548 | 0.55 | 0.937 | 0.834
Q fixed | 1.13 | 1.02 | 1.17 | 1.1 | 1.03 | 0.882 | 0.731 | 1.08 | 0.945
R fixed | 0.954 | 1.52 | 1.01 | 0.973 | 1.44 | 3.95 | 6.7 | 2.31 | 3.84
V fixed | 1.09 | 0.88 | 0.849 | 0.747 | 0.855 | 0.58 | 0.425 | 0.794 | 0.607
W fixed | 0.979 | 0.776 | 1.1 | 1.16 | 0.774 | 0.674 | 0.697 | 0.828 | 0.734
Y fixed | 1.15 | 0.778 | 0.98 | 0.952 | 1.03 | 0.772 | 0.573 | 0.789 | 0.789
pThr fixed | 1.17 | 0.868 | 0.923 | 1.34 | 0.624 | 0.484 | 0.446 | 0.703 | 0.596
pTyr fixed | 1.39 | 0.96 | 1.2 | 1.32 | 1.8 | 0.552 | 0.473 | 0.767 | 0.779

CDK8, construct: Full length*, human (from UniProt P49336)
relative phosphorylation
Conditions | at +1 | at +2 | at +3 | at +4 | at -1 | at -2 | at -3 | at -4 | at -5
A fixed | 0.287 | 1.26 | 1.05 | 1.01 | 1.02 | 1.65 | 1.08 | 0.959 | 0.86
D fixed | 0.179 | 0.789 | 0.841 | 1.19 | 0.791 | 0.579 | 0.887 | 1.18 | 1.4
E fixed | 0.16 | 0.729 | 0.743 | 0.882 | 0.556 | 0.602 | 0.934 | 1.21 | 1.32
F fixed | 0.26 | 0.84 | 0.734 | 0.893 | 1.03 | 0.43 | 1.04 | 1.1 | 1.33
G fixed | 0.807 | 1.31 | 1.47 | 1.15 | 1.47 | 0.849 | 1.29 | 0.931 | 0.883
H fixed | 0.408 | 1.03 | 1.12 | 1.06 | 0.982 | 0.643 | 0.947 | 1.08 | 1.01
I fixed | 0.463 | 0.891 | 0.735 | 1.04 | 0.286 | 1.06 | 0.684 | 0.944 | 0.864
K fixed | 0.239 | 1.11 | 0.649 | 0.698 | 1.03 | 0.309 | 0.592 | 0.842 | 0.747
L fixed | 0.291 | 1.02 | 0.694 | 0.949 | 1.04 | 0.936 | 0.683 | 0.91 | 0.911
M fixed | 0.36 | 1.12 | 1.02 | 0.955 | 1.44 | 1.05 | 1.48 | 1.05 | 0.78
N fixed | 0.51 | 0.899 | 1.39 | 0.862 | 0.866 | 0.697 | 1.25 | 0.836 | 0.887
P fixed | 10.9 | 0.801 | 1.91 | 1.09 | 1.37 | 4.62 | 1.23 | 0.923 | 0.896
Q fixed | 0.369 | 1.13 | 1.03 | 0.977 | 1.02 | 0.876 | 1.16 | 0.941 | 0.917
R fixed | 0.231 | 1.26 | 0.878 | 0.847 | 1.28 | 0.413 | 0.631 | 0.829 | 0.858
V fixed | 1 | 0.807 | 0.977 | 1.09 | 0.559 | 1.31 | 0.698 | 0.847 | 0.813
W fixed | 0.306 | 1.02 | 0.802 | 1.38 | 1.19 | 0.505 | 1.31 | 1.21 | 0.872
Y fixed | 0.241 | 0.976 | 0.942 | 0.926 | 1.07 | 0.466 | 1.09 | 1.21 | 1.65
pThr fixed | 0.423 | 0.473 | 0.694 | 0.882 | 0.312 | 0.668 | 0.74 | 1.11 | 0.898
pTyr fixed | 0.43 | 0.934 | 0.886 | 0.851 | 0.758 | 0.614 | 0.745 | 1.13 | 1.11
